# Assay: soluble on expression in E. coli; label from the status in PepcDB or PDB records
row,Sequence,soluble on expression in E. coli
1,MGSDKIHHHHHHVLKELNQLMDHIERHLTEELSGMDIVRITGVSEYHFRRMFSYMSGMTLNEYIRNRRLSQANINLVNQHSVTEVAYEYGYQSIEGFSRAFREWSGFLPSEVIKNKIQKSFPRFTFYIDIKGGVSMEFKIERKSQFHVVGVSKRVPIQFEGVNHSIVELAQSITPQQRQEMQQLADLYPETVLNVSFDFDEGYLEEQGSLTHMIGFATSRQNPYGDLEQITIEDSLWAVFPNTGPFPQMLQETMAKTYAEWLPTSGYELVDLPSILFTNHEDDSLNVYSEVWVPVKEKTTS,not soluble
2,MANSAGSMQQILNQFNHVVAIGGGHGLGRVLSSLDFLGNRLTGIVATTDNGGSTGRLRAEQDCIAWGDLRNCLSQLAHRPSVGSQLFEYRFQGETELSGHNLGNLMLLALDKLCVRPLEAVNLIRHMLKIETNIIPMSEQPTHLVALQASGSKVFGEVNVDKMNEAPIALCLEPQVNATTEACEAIRRADLIILGPGSFLTSIMPPLLLPCFAKALAMTTAPVVFIDNLNEEASPAGQFSIEQRISWCHQVIGKPVITKVLRHSEQLRLGTLVNYFPLRNRHNPQLHDQASLRDALCAVLRIKSGLPLETLVSLEHHHHHH,not soluble
3,LSGYAQAGFSSLWLPTASSEKENYNTFDVKRITLRANVAITDKWSVTFIPDFAKRYTNLELYTSFRTCSGFGIRLGQFKTAFSIENQLSPTTIETISCGSMATNFLAAGNGSDPLMGAQSGRDVGLEIYGDLFNDILGYRLGVLNGQGINTLDGSKHKTLEGSLTLRPIECLSFTGSFMSGKTAALNDAPIKINSKQIMAGDLYDRSRWSVGGMFRSKYLDLRSEYLEGKDDDMISKGFYVTGVGRLFKNLDIIGSYDFMDLYERQQVHNITAGLQYWFFPKCRLQAQYVLSNPKGEYNNTHALLTQVQVAF,not soluble
4,MSLIYSGKFRIGVQDEAALQMLHDPEKLGPCLPGVSSFERNDDGYSCKVRLDVSSMGSSYLSKISGKLAFSYLDSENRTIHVQGKGRIAGSSISFDLFISVNGGELIWKIDVNYGILIKMMGEEKIRDVTQANIDRSVKCLSSVLCQEGHHHHHH,soluble
5,SSDSFDRAPEQTKPQRAPPSSQDKIPQQNSESAMAKPQVVVAPVLMSKLSANAPEFYPSGYSSNYTESYEDGCEDYPTLSEYVQDFLNHLTEQPGSFETEIEQFAETLNGWVTTDDALQELVELIYQQATSIPNFSYMGARLCNYLSHHLTISPQSGNFRQLLLQRCRTEYEAKDQAAKGDEVTRKRFHAFVLFLGELYLNLEIKGTNGQVTRADILQVGLRELLNALFSNPMDDNLICAVKLLKLTGSVLEDTWKEKGKTDMEEIIQRIENVVLDANCSRDVKQMLLKLVELRSSNWGRVHATSTYREATPENDPNYFMNEPTFYTSDGVPFTAADPDYQEKYQELLEREDFFPDYEENGTDLSGAGDPYLDDIDDEMDPEIEEAYEKFCLESERKRKQ,not soluble
6,MLEKHWSKSLVDSFESSKNKPSNLNGKKYILSMFPYPSGRLHIGHMRVYTISDATARYYRLNGYEVIHPIGWDSFGLPAENAARDKGVDPREWTINNIESMKQQLLKTKILFDWEKEISTCEPEFFRWTQWIFCKLFEYGLVKRTSSEVNWDPIDKTVLAAEQIDNDGKSWRSGAKAEKKKLSQWMIETPKYAKRLQEGLRKMSEQWGEVADIQANWIGKCDVYRFMLPVMKDGSNDEIIDLRIKDIFEISNAEFLVLKQSHSLADKDATQFPYKLPFQVLNGVTGRQIPVIVVEDTYQPDVTSFLNSRIGNFQKDKILVEKFAIAEPKHKRKLTKNDIQEMASFGGYGGYETSRTLTDWVVSRQRGWGTPIPMIQTKDGKRVAVQLNKLPVLGSDRGQEVDKERFGESGVFDTDTLDTFFDSAWYYLRYLDNKNKSELISKGAMKNMPVDVYVGGIEHAAVHMFFARFVAYFLKDINVIQTAEPFTDLIPQGIVRGKTFIEKETGKYLGSEDVQQSGDKLTLKNDSSVEVDAVYEKMSKSKNNGVDLAAILDSEGVDMTRLRLLEAAAPRAPINWGETDLKGIKKLLDRIAAINSQIVDARDNGKPIELKKEIDGSIKETYNFFVRNVGMCLEVLHLHNTALMRIQGFTNALKKVDPIYLAHSPEGQRAVKSLIIMLQVFCPHVASEMWSALANDGSLVSDQKWPEVDKDADIEFLLMIDGVSGGRPSLDRRIIEEMSMDQLWERATFYEHADILRMMKEDGMKLKNSSYISRKGFHVTLSCSLEGDKEENRKKIGKILDRIQAEKRKLEIGKKGGKRKKEKKIVNK,not soluble
7,SNALFSSRDILEVLQDIHMETGETVAIATKNDIYLQYIQIIESVHALRFHVDENAIRPLTMSSNGWMLMSTMNDKAIDNTVRRANTITQKDGIRFEVDDMMARIRQVREQGYASAEHIPFVGGGTICVLLPMTIQGQPVTMGLGGALDRIKQNYDRYLELLLNGVQQLKKSDSFHQPI,soluble
8,SLQWECWPSLPCWRCFAASGRITLSIKRFTQNSRRHDMKITKINAIPLSYRLPEGKTVTMGVGSTIKRDAIIIRVETSEGITGYGEAHPGRSPGAITSLIHNTIAPMLIGMKATDCVGAWQRVHRMQLSSHGLGAGAALAISGIDMALWDIRGKAANMPLYELLGGSKRRIPAYAGGIALGYQPKESLAEEAQEYIARGYKALKLRIGDAARVDIERVRHVRKVLGDEVDILTDANTAYTMADARRVLPVLAEIQAGWLEEPFACNDFASYREVAKITPLVPIAAGENHYTRFEFGQMLDAGAVQVWQPDLSKCGGITEGIRIAAMASAYRIPINAHSSATGLNHAATIHFLAATENAGYFEACVSKFNPFRDMFGTSFEIGADGCVEPPDAPGLGIEVDESIFEKYPAVDGPGYVVKF,not soluble
9,MKTAIVTDSASYLSAADVEKYHIHVVPITVIFGHQTYLENVEITSKEFYERMRTAPELPTTTQITLGQMQTTYDQLAKAGYDAVISIHLSSGITSFITNLESYLPNVTNIKVYPFDSLITAGGEAYMVLLAAKLVTEGYSPEQVIAQLKKIRETTGVYFVVDNLSHLVRTGRLSNASGLVGNLLRIKPVLTFQDGKIVAIQKERTMRRAYAAIKAKLAAEIAAVDYPLRVTIENGNNPKLQAEWTADLKASFPDLTIDEGEIGPVVGVHVGEGVMGLIWARDWEKWTI,not soluble
10,MGSDKIHHHHHHMETITKKANLSLLELPSGGEESLFCRLYSPALAGPAPLIVLFHGFPGKQLNMDWAVQLQNLSFHVLVTSYRGTIGSPGAFRFRHVLEDATAIMQHVVSPEFTQAHDISADQISIVGHSMGGFAGLHAFIDVPDIAHYIGISPFNFGLIGQLVLDYPEHEEALQGVLSRGAQFLSHTDGDILLDELKRHHATWNLLSLKEQLGTRSALLVTSERDETSIKSLHHDLLQDASAFEQIIVDSDHNYIENREDAFRAWTTWLRRR,not soluble
11,MRAAQALPQTAHVSHFGHGPRLVLALHCTIAHSGAWKGLTRILGEEAQFTAPDMLSHGRSPDWDGQGCFQDRILGIARTCLTEAPMDVIGHSFGATVALRLAVEHPERVRSLTLIEPVFFAVARQDAPELIDSHASDAQPYLDALAAGDHALAARLFNRMWSTADSPRWPDLPEATRAAMIRGIHVVPTMDAALFDDTAGLLAPGRLDRAAMPVLLLRGALTHPVMQAISMGLQRRLPDAVEMVIEGAGHMLPITHPDETAAHIRALWSRTG,not soluble
12,MKINNLVDLHCHILPAIDDGSPSLEASLELARQAVADGIRYILATPHHMDRHYLNHAGDVVAAVEAFQAELDVNDIPLTIFPGQEVHLNGQLMEKVDDLLSIDTGRHYLLLELPHEMVPSYLDEMIFQLSCEGITPVIAHPERNAQIIAEPQRLYKLAEDGVLAQVTATSLVGTFGEQVQRTAKEFVKCGLVQVVASDAHTLKNRGFAMTKAYQVLNEMDSKYPERFATNARDLLNGEQIEMGQIEIPRKQRKHWLF,not soluble
13,MSENLHTIIHHVDFFPLRIRVFRNGDMFDHGRILVVTRKQFKHWIVFLDALTDLLRTATAVRRLFTTQGIPVHHFDDLETNGEYVAVETGPFVNVPYGQARFTLRLKRYNPIIRAPELIPTFLHSAESMDIYLKKEGYGTITGLPYPFDGILSRSPSASNIQIKHLQSHHIPPLKIGGSMEHLNELGTASWLGKNEKWMMGERVKLETQSQTLAQKSEKDEQIPRLDIKEVDGGSTTSEFMRNGEKSKSTTKLPRLLNSNRSFRREPVSAQKPPSEEPRSTSENLPPIDLKSIQISQNSQSTSQKKDSDTISIKTEEEVISILKPEKTTTESIVSSKISRKNAPKDDDEVRFHRSYQVTETTYTTRNSDETDRRKPENVEKTVESKNDRSVQDKSEKIEKKVPEKLSKPQKTETTKSKERAKWADQGNTTLKREKSIEKSTRQGKIDKSIEKLIDKSIDNTEKLSSQKPKIDMAKGELRKFDVDINEIPIRFEGPMVNKSRINTSRIVTSRSTTNLFVDEIVNEDELDDVIERAQLWDLNRRRQNMRQQHTQTSGSLCRSISAPRRRVVLFDPDFD,not soluble
14,MKFNSMFSPIDIGPMKVPNRFVVSPMCNNYANTDGTLSDTSLAYYKERALGGFGLITFEATVVDVRAKGGANKACLYSDHQIASFKRVIDVCHDAGAKISVQLQHAGPEGNSKVSGYPLRAASAIASAAGRNTPEAISREELYELIELYGEAALRAKKAGADAVEVHCAHGYLVSSFLSARTNKRVDEFGGCFENRMRLPRLIIESIRKRVGHSIAILCRINSTDGVDGGLSVQDSATVAAYLEDCGLDGLHVSRSVHIRDEYMWAPTVLHAGFSSDLVTQIKRAVSIPVITVGRFTEPHYAELMVREGRADLVAFGRQSLADPETPNKAAAGKLDELLPCIACLQGCVANMYAGKPITCLVNPLLGRESEAYLPKTPSKKVVVVGGGVGGLYAGWMAGSRGHDVTVYEASDMIGGQMRLAAYPPGKGDLTNMVRSYIKKCEQFDVEIKTNTPVTLELIQEVAPDAVIIATGATPLVLPIPGIEDAGLIHAVDLLDGKEKCGQKVLVVGGGMVGSETAAFLGEAGHDVTVVELRDEVGADVISEHRKFLMHDFDEYKIKSVTNAKVTSFFEDGVTYSLADNKEQRIDGFDSVVLAMGSRAYNPLEEAIKAIVPETYVIGDAVRARRALDATKEALDAVLQL,not soluble
15,MGSDKIHHHHHHMAFILMQNINKTFHGVKALNRVNLSLDYGEALCLAGQNGCGKSTLIKILSGVYQPDKGAEIQIGASKYTKLTPQASIEQGIQVIYQDLALFPNLTVAENIAINLHRKLGWVSQSEIHQVALNAILSINADLDLNAILEDLPIAQQQLVAICRALAQNARLLIMDEPTASLTAKEVQDLLKVVLKLKSKGISIIFVSHKLQEVMSVSDTVLVLKNGNMVGQYPISEMDEKRLGFLMTGLEIDYKRLDLPDFSQNRTVLEVQNLTLPNQYESINFSLREGEIIALTGLLGSGRTELCLSLFGITQPKSGDILLNGEKVIFQNNRDAIKQGIAYVSEDRMTTGLIMTESIHHNIISTIFHKITDKFNIIKSSKAYNYSQELIESLKIKVTDSDLPVNTLSGGNAQRVSIAKWLAIDPRIIILDAPTIGVDIANKEGIFQIIRTLAQKGIAVIFVTDEVEEAYYNSHKVIVMKKGKIVGEILPIYTTEKSIAEVVYENHQ,not soluble
16,MNDEIISNLHMLSAVHRSLPRDARKDYLSRVRGKVEHLYKAIQGNKKPEINFEVSLEEAKLADKYLKDAKKVRIGNTMSDRDEYLGLLEIADNDERKCVFIHVSIGGIEEGCIVIQLFNDIVPRTAQNFESWCTGEKRGKYGEPLHLKECEIKMILPGSVIGFGDFEENCEYFDDEKSKENHCKNVLSMNIDKSENSSAPLFNMELSDGVDRAGKAIVFGKVVMGNRVIEKVLLAGSRDGIPEQTVKISDCGEMFRGGHSHF,not soluble

# From the DeepSol protein solubility set
